The source of these data is the supplement of paper PMC6379048.

What all share (experiment): Kd (EC50 corrected by depletion factor)
The target in data set [1] is T1, TIA1 (UniProt P31483).
T1 sequence: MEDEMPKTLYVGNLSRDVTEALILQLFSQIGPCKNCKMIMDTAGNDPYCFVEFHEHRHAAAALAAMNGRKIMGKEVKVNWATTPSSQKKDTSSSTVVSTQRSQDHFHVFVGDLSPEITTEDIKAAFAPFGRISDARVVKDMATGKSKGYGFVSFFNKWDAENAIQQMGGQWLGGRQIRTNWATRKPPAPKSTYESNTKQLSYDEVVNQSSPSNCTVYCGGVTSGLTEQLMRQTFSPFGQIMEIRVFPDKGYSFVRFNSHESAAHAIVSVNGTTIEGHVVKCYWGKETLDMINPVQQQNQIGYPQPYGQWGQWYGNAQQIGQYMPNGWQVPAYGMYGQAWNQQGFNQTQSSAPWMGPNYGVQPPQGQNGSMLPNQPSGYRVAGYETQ
An outline of the steps:
(§1)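 Over three biological replicates and two independent experiments, proteins captured on NHS-Sepharose beads carrying 5′-amino-C6 RNA oligos were quantified by label-free LC-MS/MS and normalised to the control. Capture lasted 30 min at 4°C and followed a 1 h pre-incubation at 4°C of HEK293-FT lysate (2.5 mg protein/well) with the same oligos in free form (0 nM to 30 μM). EC50 was taken from a four-parameter log-logistic fit, and Kd was EC50 corrected by a protein-dependent depletion factor.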

Data set [2] addresses MRPL22 (UniProt Q9NWU5). Put shortly: as §1
In data set [3] the target is T2, PLOD1 (UniProt Q02809).
T2 sequence: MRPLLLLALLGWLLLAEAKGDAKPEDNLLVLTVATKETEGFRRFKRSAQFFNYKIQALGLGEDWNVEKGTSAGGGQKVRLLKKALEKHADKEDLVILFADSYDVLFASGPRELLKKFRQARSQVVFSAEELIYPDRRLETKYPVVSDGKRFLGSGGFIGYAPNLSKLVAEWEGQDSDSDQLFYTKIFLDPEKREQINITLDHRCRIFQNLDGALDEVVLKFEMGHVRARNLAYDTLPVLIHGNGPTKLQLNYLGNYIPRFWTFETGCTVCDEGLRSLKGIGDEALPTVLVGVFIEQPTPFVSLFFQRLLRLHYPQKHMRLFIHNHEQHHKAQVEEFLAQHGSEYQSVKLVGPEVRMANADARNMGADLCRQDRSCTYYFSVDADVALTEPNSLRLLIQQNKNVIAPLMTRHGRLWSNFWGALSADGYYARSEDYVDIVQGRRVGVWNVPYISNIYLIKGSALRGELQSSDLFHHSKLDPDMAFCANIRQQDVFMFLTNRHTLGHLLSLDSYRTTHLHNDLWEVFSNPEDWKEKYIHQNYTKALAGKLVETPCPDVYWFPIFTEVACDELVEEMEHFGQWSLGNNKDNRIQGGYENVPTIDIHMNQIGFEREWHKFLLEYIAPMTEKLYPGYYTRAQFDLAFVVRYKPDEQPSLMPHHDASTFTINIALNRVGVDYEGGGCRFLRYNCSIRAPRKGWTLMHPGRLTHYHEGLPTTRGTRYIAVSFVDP
An outline of the steps:
as §1

Data set [4] addresses T3, PATL1 (UniProt Q86TB9).
T3 sequence: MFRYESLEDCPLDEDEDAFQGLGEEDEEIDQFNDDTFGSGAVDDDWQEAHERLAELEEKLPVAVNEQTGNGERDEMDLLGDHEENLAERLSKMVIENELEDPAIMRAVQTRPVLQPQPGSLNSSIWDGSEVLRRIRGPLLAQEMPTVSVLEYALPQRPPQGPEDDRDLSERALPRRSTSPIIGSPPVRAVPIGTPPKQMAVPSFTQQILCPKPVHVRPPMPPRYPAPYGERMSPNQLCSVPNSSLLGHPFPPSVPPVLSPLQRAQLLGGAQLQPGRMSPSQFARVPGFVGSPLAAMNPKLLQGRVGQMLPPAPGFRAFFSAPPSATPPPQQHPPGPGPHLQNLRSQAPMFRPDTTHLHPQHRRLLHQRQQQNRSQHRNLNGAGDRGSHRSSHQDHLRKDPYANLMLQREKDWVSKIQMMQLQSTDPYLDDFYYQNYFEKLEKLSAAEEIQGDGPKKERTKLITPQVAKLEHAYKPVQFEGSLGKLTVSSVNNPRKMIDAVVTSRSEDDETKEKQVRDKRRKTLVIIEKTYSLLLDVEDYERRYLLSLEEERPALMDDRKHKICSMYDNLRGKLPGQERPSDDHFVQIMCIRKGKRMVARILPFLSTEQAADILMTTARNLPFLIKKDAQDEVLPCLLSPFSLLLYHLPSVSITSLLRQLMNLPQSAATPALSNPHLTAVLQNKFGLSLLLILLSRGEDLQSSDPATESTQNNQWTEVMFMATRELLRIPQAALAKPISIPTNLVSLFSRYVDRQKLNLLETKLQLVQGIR
Put shortly:
as §1

Data set [5] has as its target T4, PRPF3 (UniProt O43395).
T4 sequence: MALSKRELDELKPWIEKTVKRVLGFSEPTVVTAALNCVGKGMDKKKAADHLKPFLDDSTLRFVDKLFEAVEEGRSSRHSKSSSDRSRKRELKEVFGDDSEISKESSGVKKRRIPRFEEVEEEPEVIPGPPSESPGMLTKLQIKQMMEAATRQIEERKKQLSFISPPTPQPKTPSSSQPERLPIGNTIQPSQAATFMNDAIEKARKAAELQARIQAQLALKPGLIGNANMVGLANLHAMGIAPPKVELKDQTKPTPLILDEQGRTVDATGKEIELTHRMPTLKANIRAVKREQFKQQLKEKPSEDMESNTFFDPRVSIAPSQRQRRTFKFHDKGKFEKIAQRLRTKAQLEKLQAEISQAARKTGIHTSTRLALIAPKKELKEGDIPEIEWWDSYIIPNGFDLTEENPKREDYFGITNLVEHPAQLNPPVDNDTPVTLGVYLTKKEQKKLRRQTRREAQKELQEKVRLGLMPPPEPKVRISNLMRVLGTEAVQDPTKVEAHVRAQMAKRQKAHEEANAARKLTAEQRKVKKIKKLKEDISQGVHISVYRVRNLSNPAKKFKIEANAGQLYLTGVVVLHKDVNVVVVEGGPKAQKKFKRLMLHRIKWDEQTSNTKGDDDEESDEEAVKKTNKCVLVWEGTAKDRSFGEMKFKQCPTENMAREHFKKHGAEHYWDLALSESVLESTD
Put shortly:
as §1

As usually defined, the Kd is the equilibrium constant for the complex coming apart. With AAUAAA, the Kd in data set [1] amounted to 0.158 µM. Sequence CUGUCCU had a Kd in data set [2] of 0.0674 µM. In the case of UAUUUAU, the Kd in data set [3] worked out at 4.47 µM; in data set [4] it was 0.258 µM; in data set [5], 2.67 µM.
